Laboratory results: patent publication US6465430
Bridges are numbered along the chain shown (N, C = ends). Where no end group is shown, it is not given here.

Target: soluble TPO-R (thrombopoietin receptor), immobilized (UniProt P40238 26-491)
Test: competition ELISA vs MBP-TPO156 (+: IC50 <=200 µM)

soluble TPO-R (thrombopoietin receptor), immobilized, sequence (P40238 26-491): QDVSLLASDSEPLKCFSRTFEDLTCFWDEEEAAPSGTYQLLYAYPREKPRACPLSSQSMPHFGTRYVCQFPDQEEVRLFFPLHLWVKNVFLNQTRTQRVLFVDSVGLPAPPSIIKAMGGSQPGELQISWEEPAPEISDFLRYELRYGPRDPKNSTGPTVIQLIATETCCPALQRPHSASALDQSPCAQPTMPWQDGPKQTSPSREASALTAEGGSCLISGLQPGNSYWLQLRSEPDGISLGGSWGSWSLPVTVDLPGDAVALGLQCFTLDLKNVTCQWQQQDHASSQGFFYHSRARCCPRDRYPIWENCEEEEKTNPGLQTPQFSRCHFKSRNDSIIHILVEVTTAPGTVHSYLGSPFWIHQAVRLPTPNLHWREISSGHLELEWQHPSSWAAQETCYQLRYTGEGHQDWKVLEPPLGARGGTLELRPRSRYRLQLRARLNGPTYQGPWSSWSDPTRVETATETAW

Binder	IC50
CPTLREWISFC-NH2 (disulfide 1-11 (inferred)) [cyclized SEQ ID NO:12 compound, ADG - deletion]	0.5 to 200 µM
CADGPTLREWASFC-NH2 (disulfide 1-14 (inferred)) [cyclized SEQ ID NO:12 compound, I - A]	0.5 to 200 µM
